Measurements from publication PMC11857287.

Substrate: Nc1ncnc2c1ncn2[C@@H]1O[C@H](COP(=O)(O)OP(=O)(O)OP(=O)(O)OP(=O)(O)OC[C@H]2O[C@@H](n3cnc4c(N)ncnc43)[C@H](O)[C@@H]2O)[C@@H](O)[C@H]1O
Assay: fluorescent ADP assay, Lineweaver-Burk
Type: biochemical, Streptococcus pyogenes
Conditions: Mg2+-dependent, heading states optimal conditions (optimum pH 7.0, 45 °C), 0.1 mg/mL enzyme
Text: fluorescent ADP assay, Lineweaver-Burk on Sp-yqeK

B1: Sp-yqeK (Streptococcus pyogenes) (protein)
chain: MTYEDYLPYSRTELLAKIAEQMSPKRFKHVLGVEKAALSLAECYGCNPDKAGLAALLHDYAKECPDQVFLDLIDKYQLSPELAKWNNNVWHGMVGIYKIQEDLGLKDKDILRAIEIHTVGAAEMTLLDKVLYVADYIEEGRIFPLVDDARKIAKLDLNQAVAYETVNTVAYLASKAQPIFPQTLDTYNAFCSYLKEY
notes: pET28b (Nde I/Xho I), E. coli BL21(DE3), Ni-NTA purified; about 23 kDa; dimer in the asymmetric unit
With B1 as the protein, how does the Km read?
Its Km is 216.4 ± 21.65 µM.
